Laboratory results reported in the supplement of paper PMC12764529.
± gives the half width of the 95% confidence interval.

test: folding stability dG unfold from chymotrypsin proteolysis; higher = more stable
Procedure, shortened: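 K50 was inferred by Bayesian fitting of sequencing counts obtained after protease digestion of designed mini-proteins. Unfolding free energy was derived by comparison with a sequence-predicted unfolded-state K50 and a shared folded-state K50, for each protease or both combined. The mini-proteins were under 80 residues, had no cysteine, were carried in a PA-tagged cDNA display construct, and were kept only if AlphaFold2 dimer inter-PAE exceeded 15.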

Row | Sequence | folding stability dG unfold
1 | SAGGMKIKKITVEKNPETGELVVTVEVEINGKKYKFTFYKDGTVKVEVEVNGKKVTITLPVEELKKLSAGGS [r8_238_TrROS_Hall] | 3.8 ± 0.063 kcal/mol
2 | SAGDIGRVEARPVPLPGDRPGRVVVVESSVPNLRVLLFRGPEDRWVALVETDGRVEELPLEEALRLLASSAG [r5_157_TrMRF] | 2.717 ± 0.021 kcal/mol
3 | SAGQLPPGETYTAEIEIRKNEPITLEEIAKKLPGYEFDSVKVEPMPDGWTRITITMTPGDVDKIQDAIRSAG [r5_554_TrROS] | 1.87 ± 0.031 kcal/mol
4 | SAGGSAGGSAGGGWIYMVTIEPKEVKRSPDPGGKGRPTFEFEMDITIIWIRVDPEDLDDSAGGSAGGSAGGS [r10_654_TrROS] | 4.14 ± 0.073 kcal/mol
5 | SAGGSAGGSAGVIDKENDRWYITQETPGGEPKTIPIPWDDIPDLPPENVKEVELMPPDDISAGGSAGGSAGG [r11_779_TrROS] | -0.00556 ± 0.056 kcal/mol
6 | SAGNPPVTITITINPFRHGDEPMYHVKIKNPGGKEREIPFPPDEFKEQIENEFPNIDEIEVEPMRLPPGSAG [r5_25_TrROS] | 0.615 ± 0.29 kcal/mol
7 | SAGGSAGGSAGGSKKIKIKVPPGARVRLKNGKWFSVEDIEKLKELGIKEIEIEKLPPKKSAGGSAGGSAGGS [r4_47_TrROS_Hall] | 1.13 ± 0.09 kcal/mol
8 | SAGGSAGMPDIIYKVKITVTSSGKVTTLDITLPSEEEVKKAIEELKKKGYTNIKPEIEKFLKSELGSAGGSA [r15_1015_JUSTAS] | 2.13 ± 0.066 kcal/mol
9 | SAGGSAGGSASPSYLLTVTVYRPGGNPLSRRVFPPSVSPAEVEAWLATLPSDYSWEVSREPVSAGGSAGGSA [r18_431_JUSTAS] | 2.95 ± 0.022 kcal/mol
10 | SAGGKTKVINVKVKSIEELLEKLAKLPNVKKVEVKEVNGKKEITIEVDGKKIKITKNKDGYYSIEIFPSAGG [r13_907_TrROS_Hall] | 1.98 ± 0.34 kcal/mol
11 | SAGGETLEVKLKNGYLLRIDLETGKVEVRPLKPVKIELKIEVKPPPVEVKLEKEIKLEKKIEVKVEFSAGGS [r16_453_TrROS_Hall] | 2.51 ± 0.062 kcal/mol
12 | SAGGMSLSDPRDIRKAAKLKEIEILVKELNDKGIEVKLDEISFIEGTEEITAIVTFPDGTKYEITINSAGGS [r8_277_TrMRF] | 1.02 ± 0.018 kcal/mol
13 | SAGGMVEEVKELAKELGFDVEIELTSVYGEKGYVPYKVTFPNGKTYYITFKGSPDEMKKKLRDLLEKSAGGS [r16_153_TrMRF] | 2.99 ± 0.034 kcal/mol
14 | PIIHFRSPEDAEDFVKELVKKIAKEARKNGDPGQPYEIKIPVVWHDEDSGGPHRFPIEIEIRPDGDIKLTFS [r1_316_TrROS] | 1.76 ± 0.088 kcal/mol
15 | SAGGSAGGSAGGMILRDPNRDIWTADFPDSSGNLVSSREFPPGEIEEVLAEGNVSAEVLPSAGGSAGGSAGG [r11_159_JUSTAS] | 0.297 ± 0.059 kcal/mol
16 | SAGGSAGGSSMTLTTLEVNPSVTIEPQPGSIVVKTPVTTLVKAGDTLVTLESESITVLPPDLLSAGGSAGGS [r12_1023_JUSTAS] | 1.2 ± 0.036 kcal/mol
17 | SAGGSAGGSAGGSEKKITVYKDKNGNYLVVIEKGDKPIVIPFPKGASLKEALDIIDKLDSAGGSAGGSAGGS [r4_7_TrMRF] | 2.64 ± 0.051 kcal/mol
18 | SAGGSAKIEIIKDPETGTYTIRLEKEIKPGQTLTITDENGETWKITSVSVEEVNGELYVTVKVEKVSAGGSA [r15_838_TrROS_Hall] | 3.542 ± 0.026 kcal/mol
19 | SAGMEVKITVEREEDGTLRITITVRPDMTPEELAALLEEELGLEVRVVRDEETGERVLEIEIPLPEELESAG [r5_742_TrROS_Hall] | 2.16 ± 0.072 kcal/mol
20 | SAGGSAGGKPPKFKVEVFIFPESNSVLVKIELPNSTLPFFIDKNGKIKGIKIIGDKVFNVSEGLSAGGSAGG [r6_241_TrMRF] | 2.17 ± 0.097 kcal/mol
21 | SAGGSAGGSEITIFIKGLPDPEAIADQIADAFGYPVKDVDVQRMPNNPWMMITVTYNGKEITISAGGSAGGS [r12_935_TrROS] | 1.97 ± 0.03 kcal/mol
22 | SAGMNPNNPNVKTTTVTYTFPLPATESVEEAVERLKAEAEAAGKPIKTVEVTVERTPEDTVVIKATFVSSAG [r5_65_JUSTAS] | 1.71 ± 0.057 kcal/mol
23 | SAGGYYKDPNGKPREPVPKVEPKPVTITFPNLTPEQADYLADYLRDLGLEVKYDPENGMLTAEFWIYSAGGS [r16_765_TrROS] | 1.95 ± 0.077 kcal/mol
24 | SAGGSADNLMFMFEFEFSFEWSNPDGEPMTMEVPITVMIPIPIPVPKATPEAMKDPEKAKEAQEEASAGGSA [r15_728_TrROS] | 3.51 ± 0.19 kcal/mol
25 | SAMEVVEERELPDGTTVVTIPDPATGDTVVLVTDPEGKITVYTYPSSTGIPTEEVFPDLSVEEAIARLASAG [r14_760_JUSTAS] | 0.858 ± 0.071 kcal/mol
26 | SAGGSKEYEVKIVKIKEVKVENGKVYIKLEVEVRDKKTGKLLPSAEELAKELKKKFPNLKIEVKKPSAGGSA [r2_27_TrROS_Hall] | 2.4 ± 0.12 kcal/mol
27 | SAGGSAGGSAGGPNLQIMVMQTDNSLTVMIYLPEGWVIVYKITPMKIELEIMPLKDPDDSAGGSAGGSAGGS [r10_1169_TrROS] | 5.17 ± 0.32 kcal/mol
28 | SAGGSAGGSAWITINDVRDYLKKEGIDPKNMSAEEIASEFKDKWPNVNIEAQPNGSAWIKPSAGGSAGGSAG [r3_375_TrROS] | 0.535 ± 0.36 kcal/mol
29 | SAGGSAGGSAGVNPNLPNYSVVPTTVTVKVLETFTDPQGNSYTREFTLEVETLIVNPPLLSAGGSAGGSAGG [r17_523_JUSTAS] | 3.91 ± 0.084 kcal/mol
